Test results taken from the Immune Epitope Database (IEDB).

Key:
[1] = target: HLA-A*01:01; test: IEDB peptide-MHC binding, purified MHC/direct/fluorescence; filed as Kd, often an IC50 or EC50 that approximates it; ≥ and ≤ were set here for values at or beyond the usual limits of such assays
[2] = target: HLA-A*02:01; test: as above
[3] = target: HLA-A*03:01; test: as above
[4] = target: HLA-A*26:02; test: as above
[5] = target: HLA-A*26:03; test: as above
[6] = target: HLA-A*68:02; test: as above
[7] = target: HLA-A*69:01; test: as above
[8] = target: HLA-B*07:02; test: as above
[9] = target: HLA-B*08:01; test: as above
[10] = target: HLA-B*08:02; test: as above; conditions: source organism: Influenza B virus (B/Beijing/184/93)
[11] = target: HLA-B*15:01; test: as above
[12] = target: HLA-B*15:09; test: as above
[13] = target: HLA-B*15:17; test: as above
[14] = target: HLA-B*18:01; test: as above; conditions: source organism: Influenza A virus (A/quail/Hong Kong/FY298/00(H9N2))
[15] = target: HLA-B*27:05; test: as above
[16] = target: HLA-B*39:01; test: as above
[17] = target: HLA-B*40:01; test: as above
[18] = target: HLA-B*46:01; test: as above
[19] = target: HLA-B*48:01; test: as above
[20] = target: HLA-B*57:01; test: as above
[21] = target: HLA-B*58:01; test: as above
[22] = target: HLA-A*11:01; test: as above
[23] = target: HLA-A*31:01; test: as above
[24] = target: HLA-B*08:03; test: as above
[25] = target: HLA-B*15:02; test: as above
[26] = target: HLA-C*12:03; test: as above; conditions: source organism: Escherichia coli O157:H7 str. EDL933
[27] = target: HLA-A*30:01; test: IEDB peptide-MHC binding, purified MHC/competitive/fluorescence; filed as Kd, often an IC50 or EC50 that approximates it; ≥ and ≤ were set here for values at or beyond the usual limits of such assays
[28] = target: HLA-A*26:01; test: IEDB peptide-MHC binding, purified MHC/direct/fluorescence; filed as Kd, often an IC50 or EC50 that approximates it; ≥ and ≤ were set here for values at or beyond the usual limits of such assays; conditions: source organism: Salmonella enterica
[29] = target: HLA-B*35:01; test: as above; conditions: source organism: Salmonella enterica subsp. enterica serovar Typhimurium
[30] = target: HLA-B*44:02; test: as above; conditions: source organism: Salmonella enterica
[31] = target: HLA-C*06:02; test: as above; conditions: source organism: Yersinia pestis Nepal516
[32] = target: HLA-C*08:02; test: as above; conditions: source organism: Yersinia pestis Nepal516
[33] = target: HLA-A*03:19; test: IEDB peptide-MHC binding, purified MHC/competitive/fluorescence; filed as Kd, often an IC50 or EC50 that approximates it; ≥ and ≤ were set here for values at or beyond the usual limits of such assays; conditions: source organism: Yersinia pestis Nepal516
[34] = target: HLA-A*68:23; test: as above; conditions: source organism: Yersinia pestis Nepal516
[35] = target: HLA-B*15:42; test: as above
[36] = target: HLA-B*45:06; test: as above
[37] = target: HLA-B*83:01; test: as above
[38] = target: HLA-A*26:01; test: as above; conditions: source organism: Variola virus
[39] = target: HLA-B*73:01; test: IEDB peptide-MHC binding, purified MHC/direct/fluorescence; filed as Kd, often an IC50 or EC50 that approximates it; ≥ and ≤ were set here for values at or beyond the usual limits of such assays; conditions: source organism: Homo sapiens
[40] = target: HLA-A*32:07; test: IEDB peptide-MHC binding, purified MHC/competitive/fluorescence; filed as Kd, often an IC50 or EC50 that approximates it; ≥ and ≤ were set here for values at or beyond the usual limits of such assays; conditions: source organism: Homo sapiens
[41] = source organism: Influenza A virus (A/quail/Hong Kong/FY298/00(H9N2))
[42] = source organism: Influenza B virus (B/Beijing/184/93)
[43] = source organism: Escherichia coli O157:H7
[44] = source organism: Escherichia coli O157:H7 str. EC869
[45] = source organism: Salmonella enterica
[46] = source organism: Salmonella enterica subsp. enterica serovar Typhimurium
[47] = source organism: Yersinia pestis
[48] = source organism: Yersinia pestis Nepal516

For TKDAERGKL, the Kd [1, 41] was at least 20 µM, the Kd [2, 41] was at least 20 µM and the Kd [3, 41] was at least 20 µM. For the same sequence, the Kd [4, 42] was at least 20 µM, the Kd [5, 42] was at least 20 µM and the Kd [6, 41] was at least 20 µM. It also gave a Kd [7, 41] of at least 20 µM, a Kd [8, 41] of at least 20 µM and a Kd [9, 42] of at least 20 µM. For the same sequence, the Kd [10] was at least 20 µM, the Kd [11, 41] was at least 20 µM and the Kd [12, 42] was at least 10 µM. For the same sequence, the Kd [13, 41] was at least 20 µM, the Kd [14] was at least 20 µM and the Kd [15, 41] was at least 20 µM. For the same sequence, the Kd [16, 41] was at least 20 µM, the Kd [17, 41] was at least 20 µM and the Kd [18, 41] was at least 20 µM. For the same sequence, the Kd [19, 41] was at least 20 µM, the Kd [20, 41] was at least 20 µM and the Kd [21, 41] was at least 20 µM.

YQAFRTKVH showed a Kd [1, 43] of at least 20 µM, a Kd [2, 43] of at least 20 µM and a Kd [3, 43] of at least 20 µM. The Kd [22, 43] was at least 20 µM, the Kd [4, 44] was at least 20 µM and the Kd [23, 43] was at least 20 µM. For the same sequence, the Kd [6, 43] was at least 20 µM, the Kd [7, 43] was at least 20 µM and the Kd [8, 43] was at least 20 µM. For the same sequence, the Kd [9, 44] was at least 20 µM, the Kd [24, 44] was at least 20 µM and the Kd [11, 43] was 0.01 µM. The Kd [25, 43] was at least 20 µM, the Kd [12, 44] was at least 20 µM and the Kd [13, 43] was at least 20 µM. The Kd [15, 43] was at least 20 µM, the Kd [16, 44] was at least 20 µM and the Kd [18, 43] was at least 20 µM. For the same sequence, the Kd [19, 43] was at least 20 µM, the Kd [20, 43] was at least 20 µM and the Kd [21, 43] was at least 20 µM. For the same sequence, the Kd [26] was 0.204 µM and the Kd ([27]; source organism: Escherichia coli O157:H7 str. EDL933) was at least 20 µM.

With MQQSGDEAF the Kd [1, 45] was at least 20 µM, the Kd [2, 45] was at least 20 µM and the Kd [3, 45] was at least 20 µM. For the same sequence, the Kd [22, 45] was at least 20 µM, the Kd [28] was at least 20 µM and the Kd [23, 45] was at least 20 µM. For the same sequence, the Kd [7, 45] was at least 20 µM, the Kd [8, 45] was at least 20 µM and the Kd [9, 45] was at least 20 µM. The Kd [11, 46] was 0.2 µM, the Kd ([25]; source organism: Salmonella enterica subsp. enterica serovar Typhimurium str. LT2) was 0.032 µM and the Kd [15, 45] was at least 20 µM. The Kd [29] was 0.147 µM, the Kd [17, 46] was 1.01 µM and the Kd [30] was at least 20 µM. The Kd [18, 45] was at least 20 µM and the Kd [21, 45] was at least 20 µM.

With TVYPKTHYV the Kd [2, 47] was 0.0415 µM, the Kd [3, 47] was 4.18 µM and the Kd [22, 47] was 0.048 µM. The Kd [23, 47] was 0.178 µM, the Kd [7, 47] was 0.0114 µM and the Kd [11, 47] was 2.01 µM. The Kd [21, 47] was 3.63 µM, the Kd [31] was 0.035 µM and the Kd [32] was at least 20 µM. The Kd [33] was 0.201 µM, the Kd [34] was at most 0.0001 µM and the Kd [35, 48] was at least 5 µM. The Kd [36, 48] was at least 5 µM and the Kd [37, 48] was at least 5 µM.

Work on ILQDRIRMY yielded a Kd ([1]; source organism: Cowpox virus) of at least 20 µM, a Kd ([2]; source organism: Cowpox virus) of at least 20 µM and a Kd ([22]; source organism: Cowpox virus) of at least 20 µM. The Kd ([5]; source organism: Variola virus) was at least 20 µM, the Kd ([23]; source organism: Cowpox virus) was at least 20 µM and the Kd ([6]; source organism: Cowpox virus) was at least 20 µM. For the same sequence, the Kd ([7]; source organism: Cowpox virus) was at least 20 µM, the Kd ([8]; source organism: Cowpox virus) was at least 20 µM and the Kd ([9]; source organism: Variola virus) was at least 20 µM. The Kd ([24]; source organism: Variola virus) was at least 20 µM, the Kd ([11]; source organism: Cowpox virus) was 0.126 µM and the Kd ([25]; source organism: Variola virus) was 0.02 µM. It also gave a Kd ([12]; source organism: Variola virus) of at least 20 µM, a Kd ([13]; source organism: Cowpox virus) of 0.737 µM and a Kd ([15]; source organism: Cowpox virus) of at least 20 µM. It also gave a Kd ([18]; source organism: Cowpox virus) of at least 20 µM, a Kd ([19]; source organism: Cowpox virus) of at least 20 µM and a Kd ([20]; source organism: Cowpox virus) of at least 20 µM. For the same sequence, the Kd ([21]; source organism: Cowpox virus) was at least 20 µM, the Kd [38] was at least 20 µM and the Kd ([27]; source organism: Variola virus) was at least 20 µM.

For MAWLFFWAI, the Kd [39] was at least 20 µM, the Kd [40] was 3.39 µM and the Kd ([35]; source organism: Homo sapiens) was at least 5 µM. It also gave a Kd ([36]; source organism: Homo sapiens) of at least 5 µM and a Kd ([37]; source organism: Homo sapiens) of at least 5 µM.
